Laboratory results from paper PMC3985669.

Legend:
Hfq [1] = biological target: Hfq (UniProt P0A6X3); assay: EMSA
Hfq [2] = biological target: Hfq (UniProt P0A6X3); assay: footprinting

Sequence of Hfq (P0A6X3 2-102): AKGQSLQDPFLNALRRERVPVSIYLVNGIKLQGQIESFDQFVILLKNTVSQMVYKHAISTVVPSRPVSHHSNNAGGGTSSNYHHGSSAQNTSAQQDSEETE

Sequence	binding (Hfq [1])	binding (Hfq [2])
GGAUGUAAUCCAUUAGUUUUAUAUUUUACCCAUUUAGGGCUGAUUUAUUACUACACACAGCAGUGCAACAUCUGUCAGUACUUCUGGUGCUUCUAUUUUAGAGGCAGCUGUCAGGUGUGCGAUCAAUAAAAAAAGCGGGGUUUCAUCAUGUUUAAUGAAGUCCAUAGUAUUCAUGGUCAUACAUUAUUGUUGAUCACUAAAUCUUCUUUGCAGGCG [RydC + csgD mRNA215 duplex]	binds	
GGAUGUAAUCCAUUAGUUUUAUAUUUUACCCAUUUAGGGCUGAUUUAUUACUACACACAGCAGUGCAACAUCUGUCAGUACUUCUGGUGCUUCUAUUUUAGAGGCAGCUGUCAGGUGUGCGAUCAAUAAAAAAAGCGGGGUUUCAUCAUGUUUAAUGAAGUCCAUAGUAUUCAUGGUCAUACAUUAUUGUUGAUCACUAAAUCUUCUUUGCAGGCG [csgD mRNA215]	binds	binds
